Measurements: publication PMC10686484, “Cas9 is mostly orthogonal to human systems of DNA break sensing and repair”

B1: sgRNA (pLK1) + dsDNA1/2* (mixed)
RNA: GGAUAACUCAAUUUGUAAAAAAGUUUUAGAGCUAGAAAUAGCAAGUUAAAAUAAGGCUAGUCCGUUAUCAACUUGAAAAAGUGGCACCGAGUCGGUGCUUUU
DNA 1: CTGATAACTCAATTTGTAAAAAATGGTACTGAGCA
DNA 2: TGCTCAGTACCATTTTTTACAAATTGAGTTATCAG
B2: dsDNA1/2* (dsDNA)
DNA 1: B1 DNA 1
DNA 2: B1 DNA 2

Tests used:
[1] = target: Cas9 (Streptococcus pyogenes, UniProt Q99ZW2 1-1368); assay: EMSA; preformed 1 complex with sgRNA, no Mg2+; reported as apparent Kd (EC50); EMSA: 50 mM Tris-HCl pH 7.5, 100 mM NaCl, 1 mM DTT, 0.1 mg/ml BSA (oligo dsDNA only), 10 mM MgCl2 if indicated (always for plasmid), 4 C, 30 min; 10 nM dsDNA or 10 ng/ul plasmid; details: protein: recombinant; label: 5'-32P on DNA2 (target strand); guide + blunt 35 bp duplex
[2] = target: T1, RPA (human, UniProt P27694;P15927;P35244 1-616;1-270;1-121); assay: EMSA; 10 mM Mg2+; reported as Kd; EMSA: 50 mM Tris-HCl pH 7.5, 100 mM NaCl, 1 mM DTT, 0.1 mg/ml BSA (oligo dsDNA only), 10 mM MgCl2 if indicated (always for plasmid), 4 C, 30 min; 10 nM dsDNA or 10 ng/ul plasmid; details: protein: recombinant; copies: 1;1;1; label: 5'-32P on DNA2 (target strand); blunt 35 bp
[3] = target: PARP1 (human, UniProt P09874 1-1014); assay: EMSA; no NAD+, no Mg2+; apparent Kd (EC50), from loss of free DNA; EMSA: 50 mM Tris-HCl pH 7.5, 100 mM NaCl, 1 mM DTT, 0.1 mg/ml BSA (oligo dsDNA only), 10 mM MgCl2 if indicated (always for plasmid), 4 C, 30 min; 10 nM dsDNA or 10 ng/ul plasmid; details: protein: recombinant; label: 5'-32P on DNA2 (target strand); blunt 35 bp
[4] = target: PARP2 (murine, UniProt O88554 1-559); assay: as above; details: protein: recombinant; label: 5'-32P on DNA2 (target strand); blunt 35 bp
[5] = target: T1, RPA; assay: EMSA; no Mg2+; reported as Kd; EMSA: 50 mM Tris-HCl pH 7.5, 100 mM NaCl, 1 mM DTT, 0.1 mg/ml BSA (oligo dsDNA only), 10 mM MgCl2 if indicated (always for plasmid), 4 C, 30 min; 10 nM dsDNA or 10 ng/ul plasmid; details: protein: recombinant; copies: 1;1;1; label: 5'-32P on DNA2 (target strand); blunt 35 bp
[6] = target: Ku antigen (Ku70/80) (human, UniProt P12956;P13010 2-609;2-732); assay: EMSA; EMSA: 50 mM Tris-HCl pH 7.5, 100 mM NaCl, 1 mM DTT, 0.1 mg/ml BSA (oligo dsDNA only), 10 mM MgCl2 if indicated (always for plasmid), 4 C, 30 min; 10 nM dsDNA or 10 ng/ul plasmid; details: protein: native; copies: 1;1; label: 5'-32P on DNA2 (target strand); blunt 35 bp
[7] = target: YB1 (1-219) (human, UniProt P67809 1-219); assay: EMSA; 10 mM Mg2+; several complexes; EMSA: 50 mM Tris-HCl pH 7.5, 100 mM NaCl, 1 mM DTT, 0.1 mg/ml BSA (oligo dsDNA only), 10 mM MgCl2 if indicated (always for plasmid), 4 C, 30 min; 10 nM dsDNA or 10 ng/ul plasmid; details: protein: recombinant; label: 5'-32P on DNA2 (target strand); blunt 35 bp
Sequence of YB1 (1-219) (P67809 1-219): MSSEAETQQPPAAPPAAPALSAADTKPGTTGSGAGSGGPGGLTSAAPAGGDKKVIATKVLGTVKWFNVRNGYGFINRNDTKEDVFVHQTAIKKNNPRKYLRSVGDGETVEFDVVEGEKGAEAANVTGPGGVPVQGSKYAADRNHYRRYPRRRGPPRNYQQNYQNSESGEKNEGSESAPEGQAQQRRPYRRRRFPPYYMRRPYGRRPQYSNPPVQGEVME

T1 sequence (P27694 whole entry, chain 1 of 3): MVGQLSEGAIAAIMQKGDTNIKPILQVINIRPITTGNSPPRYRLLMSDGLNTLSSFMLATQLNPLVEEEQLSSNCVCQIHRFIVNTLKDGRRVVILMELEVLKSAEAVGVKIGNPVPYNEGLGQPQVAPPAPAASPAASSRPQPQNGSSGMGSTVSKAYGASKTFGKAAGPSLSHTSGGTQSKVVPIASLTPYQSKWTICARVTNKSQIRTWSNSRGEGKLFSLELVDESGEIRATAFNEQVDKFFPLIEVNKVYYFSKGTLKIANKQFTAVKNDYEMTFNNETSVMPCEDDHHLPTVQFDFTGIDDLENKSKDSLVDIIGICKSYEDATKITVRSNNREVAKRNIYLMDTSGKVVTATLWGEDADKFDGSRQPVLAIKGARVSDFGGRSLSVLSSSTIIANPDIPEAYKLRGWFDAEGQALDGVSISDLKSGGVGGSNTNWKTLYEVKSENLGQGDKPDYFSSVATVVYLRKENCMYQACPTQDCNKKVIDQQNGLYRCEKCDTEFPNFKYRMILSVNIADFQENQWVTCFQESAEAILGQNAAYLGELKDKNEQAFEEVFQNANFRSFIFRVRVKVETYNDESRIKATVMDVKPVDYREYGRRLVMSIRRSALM
T1 sequence (P15927 whole entry, chain 2 of 3): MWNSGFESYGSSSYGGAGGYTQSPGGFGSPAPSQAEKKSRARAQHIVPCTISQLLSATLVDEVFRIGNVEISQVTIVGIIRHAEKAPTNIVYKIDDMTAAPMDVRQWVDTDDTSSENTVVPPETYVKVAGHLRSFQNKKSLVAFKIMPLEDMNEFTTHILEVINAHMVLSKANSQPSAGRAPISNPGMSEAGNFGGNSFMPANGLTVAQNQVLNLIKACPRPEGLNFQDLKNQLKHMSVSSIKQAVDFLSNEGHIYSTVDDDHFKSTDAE
T1 sequence (P35244 whole entry, chain 3 of 3): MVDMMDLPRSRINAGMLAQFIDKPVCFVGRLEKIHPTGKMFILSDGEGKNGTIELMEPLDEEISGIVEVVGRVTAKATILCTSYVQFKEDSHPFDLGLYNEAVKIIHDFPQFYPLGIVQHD
Sequence of PARP1 (P09874 whole entry): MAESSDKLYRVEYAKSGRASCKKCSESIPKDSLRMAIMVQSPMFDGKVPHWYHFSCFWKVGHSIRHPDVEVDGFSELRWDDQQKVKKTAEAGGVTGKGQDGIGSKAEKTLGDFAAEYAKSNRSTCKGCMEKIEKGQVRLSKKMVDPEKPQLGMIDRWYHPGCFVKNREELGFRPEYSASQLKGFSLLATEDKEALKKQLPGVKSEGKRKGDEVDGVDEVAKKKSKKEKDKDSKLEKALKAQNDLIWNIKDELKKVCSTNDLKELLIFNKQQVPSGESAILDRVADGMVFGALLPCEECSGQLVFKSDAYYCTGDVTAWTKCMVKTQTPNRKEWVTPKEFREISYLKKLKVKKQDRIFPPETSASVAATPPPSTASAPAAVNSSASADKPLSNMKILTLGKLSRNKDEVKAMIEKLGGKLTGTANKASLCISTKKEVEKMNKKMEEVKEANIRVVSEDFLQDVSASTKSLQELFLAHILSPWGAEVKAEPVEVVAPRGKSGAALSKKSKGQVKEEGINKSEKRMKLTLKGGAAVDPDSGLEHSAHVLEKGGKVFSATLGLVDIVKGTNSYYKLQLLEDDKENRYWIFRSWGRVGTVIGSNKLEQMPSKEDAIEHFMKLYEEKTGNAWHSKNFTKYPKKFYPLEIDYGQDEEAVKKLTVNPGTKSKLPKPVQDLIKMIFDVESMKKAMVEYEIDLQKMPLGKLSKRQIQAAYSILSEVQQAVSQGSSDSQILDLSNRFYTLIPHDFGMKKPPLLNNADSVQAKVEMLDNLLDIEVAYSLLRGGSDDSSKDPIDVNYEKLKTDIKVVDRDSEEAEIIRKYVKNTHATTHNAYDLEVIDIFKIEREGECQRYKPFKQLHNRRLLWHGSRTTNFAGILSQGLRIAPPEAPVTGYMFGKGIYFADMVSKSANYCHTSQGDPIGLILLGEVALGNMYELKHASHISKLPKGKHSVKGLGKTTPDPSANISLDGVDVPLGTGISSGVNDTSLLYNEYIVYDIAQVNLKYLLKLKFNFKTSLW
Sequence of PARP2 (O88554 whole entry): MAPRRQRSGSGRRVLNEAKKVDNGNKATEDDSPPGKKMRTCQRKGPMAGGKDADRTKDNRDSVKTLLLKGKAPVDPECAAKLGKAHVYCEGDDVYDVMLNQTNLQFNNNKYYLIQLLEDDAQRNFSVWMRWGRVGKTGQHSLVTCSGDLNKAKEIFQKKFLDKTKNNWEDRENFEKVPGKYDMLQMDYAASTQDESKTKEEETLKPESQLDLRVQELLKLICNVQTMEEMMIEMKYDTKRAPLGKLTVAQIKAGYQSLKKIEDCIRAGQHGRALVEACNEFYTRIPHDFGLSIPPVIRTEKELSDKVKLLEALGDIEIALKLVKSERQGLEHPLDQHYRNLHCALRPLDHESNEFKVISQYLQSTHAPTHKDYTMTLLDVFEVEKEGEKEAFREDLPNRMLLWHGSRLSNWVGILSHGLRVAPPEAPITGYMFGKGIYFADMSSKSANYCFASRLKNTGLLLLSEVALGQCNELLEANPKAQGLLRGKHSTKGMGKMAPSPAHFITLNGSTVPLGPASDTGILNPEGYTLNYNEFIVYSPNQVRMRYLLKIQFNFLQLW
Sequence of Cas9 (Q99ZW2 whole entry): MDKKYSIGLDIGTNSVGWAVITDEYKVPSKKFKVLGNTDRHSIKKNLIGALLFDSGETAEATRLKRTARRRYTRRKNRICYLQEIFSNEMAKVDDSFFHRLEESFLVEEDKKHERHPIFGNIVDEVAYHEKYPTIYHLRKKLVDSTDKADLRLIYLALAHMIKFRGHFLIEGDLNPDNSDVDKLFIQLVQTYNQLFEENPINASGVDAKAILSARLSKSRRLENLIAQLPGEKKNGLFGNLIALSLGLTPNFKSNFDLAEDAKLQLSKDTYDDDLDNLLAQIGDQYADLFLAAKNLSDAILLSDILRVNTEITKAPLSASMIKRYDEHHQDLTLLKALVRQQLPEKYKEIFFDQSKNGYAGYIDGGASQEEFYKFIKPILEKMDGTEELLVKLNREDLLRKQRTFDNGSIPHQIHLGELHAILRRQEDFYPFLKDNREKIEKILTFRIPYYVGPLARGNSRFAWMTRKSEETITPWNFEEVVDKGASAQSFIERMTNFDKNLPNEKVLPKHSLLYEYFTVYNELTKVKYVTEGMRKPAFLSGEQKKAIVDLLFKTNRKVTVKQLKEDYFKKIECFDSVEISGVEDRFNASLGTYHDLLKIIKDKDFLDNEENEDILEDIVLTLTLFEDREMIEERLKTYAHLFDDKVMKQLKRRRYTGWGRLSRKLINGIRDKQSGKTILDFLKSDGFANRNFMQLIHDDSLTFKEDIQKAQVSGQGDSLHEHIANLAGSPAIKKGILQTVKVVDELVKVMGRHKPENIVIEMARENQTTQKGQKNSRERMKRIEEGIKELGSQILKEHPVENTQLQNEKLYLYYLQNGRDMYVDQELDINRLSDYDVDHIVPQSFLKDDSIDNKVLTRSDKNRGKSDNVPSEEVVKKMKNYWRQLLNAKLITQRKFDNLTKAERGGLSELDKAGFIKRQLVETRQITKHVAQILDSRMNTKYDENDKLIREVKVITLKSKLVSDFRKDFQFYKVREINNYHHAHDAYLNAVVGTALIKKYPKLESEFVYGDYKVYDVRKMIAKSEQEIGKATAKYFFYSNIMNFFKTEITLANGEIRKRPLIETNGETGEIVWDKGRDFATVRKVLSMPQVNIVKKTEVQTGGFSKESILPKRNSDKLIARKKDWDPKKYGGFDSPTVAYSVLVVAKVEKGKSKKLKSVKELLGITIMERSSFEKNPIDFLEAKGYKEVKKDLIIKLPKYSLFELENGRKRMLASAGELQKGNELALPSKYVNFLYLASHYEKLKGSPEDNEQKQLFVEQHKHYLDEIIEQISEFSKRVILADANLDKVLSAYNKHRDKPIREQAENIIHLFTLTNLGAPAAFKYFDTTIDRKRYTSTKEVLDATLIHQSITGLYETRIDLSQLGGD

Row | Binder | apparent K (half saturation) [1] [nM] | apparent K (half saturation) [2] [nM] | apparent K (half saturation) [3] [nM] | apparent K (half saturation) [4] [nM] | apparent K (half saturation) [5] [nM] | binding result [6] | binding result [7]
1 | B1 | 7.7 ± 0.4 | – | – | – | – | – | –
2 | B2 | – | 125 ± 40 | 53 ± 5 | 200 ± 16 | 90 ± 20 | binds | binds
